In patent US20190336574A1 (TRUSTEES OF PRINCETON UNIVERSITY, published 2019):
Where a chain is given by its changes, count along the chain named. Names may count otherwise. Where no end group is shown, it is not given here. CFP = cyan fluorescent protein

How the values were obtained:
[1] = target: His-SND1 (16-339), SN1/2 domains, wild type (human) (UniProt Q7KZF4); experiment: GST titration pull-down: GST-MTDH (386-407) on glutathione resin, SND1 (SN1/2) at 10, 3, 1, 0.5, 0.25, 0.12 (the sheet prints mM, paragraph 254 says µM), SDS-PAGE, Coomassie blue
[2] = target: TC-FLASH-SND1 (tetracysteine peptide fused to SND1 (16-339), labelled with FlAsH) (human) (UniProt Q7KZF4); experiment: FRET, 0.2 µM CFP-MTDH titrated with TC-FLASH-SND1 (0.25-8 µM)
[3] = target: T1, HA-SND1, full-length human, wild type (human, UniProt Q7KZF4 1-910); experiment: anti-HA co-IP (as printed on the sheet) from HEK293T lysate, western blot
T1 construct: Full-length, HA-tagged; Expressed in HEK293T cells, tested in lysate; also called HA-tagged SND1; WT HA-SND1
T1 sequence: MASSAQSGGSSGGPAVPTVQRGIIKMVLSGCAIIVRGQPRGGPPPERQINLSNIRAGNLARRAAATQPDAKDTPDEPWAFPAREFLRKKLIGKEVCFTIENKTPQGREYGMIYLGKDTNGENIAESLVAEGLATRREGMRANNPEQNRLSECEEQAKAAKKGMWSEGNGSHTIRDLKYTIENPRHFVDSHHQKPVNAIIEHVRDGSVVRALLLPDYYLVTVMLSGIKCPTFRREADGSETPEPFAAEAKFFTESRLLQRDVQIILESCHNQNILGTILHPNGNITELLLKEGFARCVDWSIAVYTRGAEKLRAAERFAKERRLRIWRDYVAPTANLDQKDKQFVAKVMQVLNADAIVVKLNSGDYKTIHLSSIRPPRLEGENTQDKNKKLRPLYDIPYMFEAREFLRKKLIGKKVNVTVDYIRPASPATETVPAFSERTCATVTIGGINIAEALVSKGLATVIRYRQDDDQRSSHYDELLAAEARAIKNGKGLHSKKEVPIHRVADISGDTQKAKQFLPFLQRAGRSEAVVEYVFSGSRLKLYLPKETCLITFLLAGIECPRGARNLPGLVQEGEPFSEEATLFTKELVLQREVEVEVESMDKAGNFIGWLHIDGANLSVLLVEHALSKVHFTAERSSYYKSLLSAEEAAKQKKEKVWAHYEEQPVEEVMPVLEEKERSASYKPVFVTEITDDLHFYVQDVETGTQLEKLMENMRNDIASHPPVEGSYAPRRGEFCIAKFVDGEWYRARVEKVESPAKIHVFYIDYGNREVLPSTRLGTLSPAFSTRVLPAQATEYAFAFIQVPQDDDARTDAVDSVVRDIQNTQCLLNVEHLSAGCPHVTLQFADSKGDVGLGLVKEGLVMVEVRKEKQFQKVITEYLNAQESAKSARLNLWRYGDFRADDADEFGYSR
Source text: The proteins bound to GS4B were examined on SDS-PAGE and visualized by Coomassie blue staining. […] The bound proteins were examined as in (FIG. 22A). For both (FIG. 22A) and (FIG. 22B), experiments were repeated three times; representative results are shown. The normalized percentage of binding was averaged from three experiments; mean±SEM was shown below the data. (FIG. 22C) HEK293T cells were transfected with human HA-SND1, WT Myc-MTDH or Myc-MTDH with indicated single point mutation. […] (FIG. 22D) HEK293T cells were transfected with human Myc-MTDH, WT HA-SND1 or mutant HA-SND1 with indicated single point mutations or deletions. […]
Immunoprecipitation and western blot: For in vivo immunoprecipitation (IP) experiments, cultured cells were washed in cold PBS and lysed in lysis buffer (20 mM Tris pH 7.4, 0.15 M NaCl, 1 mM EDTA, 1 mM EGTA, 1% Tx-100, 0.0025 M Na2P2O7, 1 mM β-glycerolphosphate, 1 mM Na3VO4, and 1 mM NaF) with an EDTA-free protease inhibitor mixture (Roche Applied Science) and PMSF. Cell lysates were then incubated on ice for 10 min, centrifuged, and precleared by incubating with protein A/G beads (Santa Cruz Biotechnology) for 1 h at 4° C. For IP bead preparation, 30 μl of protein A/G beads were incubated with 5 μg of antibodies for 2 h at 4° C. […]

[4] = target: human AGO2 (ectopically expressed in HEK293T cells) (human, UniProt Q9UKV8 1-859); experiment: co-IP (anti-Myc) from HEK293T lysates, western blot
human AGO2 (ectopically expressed in HEK293T cells), sequence (Q9UKV8 whole entry): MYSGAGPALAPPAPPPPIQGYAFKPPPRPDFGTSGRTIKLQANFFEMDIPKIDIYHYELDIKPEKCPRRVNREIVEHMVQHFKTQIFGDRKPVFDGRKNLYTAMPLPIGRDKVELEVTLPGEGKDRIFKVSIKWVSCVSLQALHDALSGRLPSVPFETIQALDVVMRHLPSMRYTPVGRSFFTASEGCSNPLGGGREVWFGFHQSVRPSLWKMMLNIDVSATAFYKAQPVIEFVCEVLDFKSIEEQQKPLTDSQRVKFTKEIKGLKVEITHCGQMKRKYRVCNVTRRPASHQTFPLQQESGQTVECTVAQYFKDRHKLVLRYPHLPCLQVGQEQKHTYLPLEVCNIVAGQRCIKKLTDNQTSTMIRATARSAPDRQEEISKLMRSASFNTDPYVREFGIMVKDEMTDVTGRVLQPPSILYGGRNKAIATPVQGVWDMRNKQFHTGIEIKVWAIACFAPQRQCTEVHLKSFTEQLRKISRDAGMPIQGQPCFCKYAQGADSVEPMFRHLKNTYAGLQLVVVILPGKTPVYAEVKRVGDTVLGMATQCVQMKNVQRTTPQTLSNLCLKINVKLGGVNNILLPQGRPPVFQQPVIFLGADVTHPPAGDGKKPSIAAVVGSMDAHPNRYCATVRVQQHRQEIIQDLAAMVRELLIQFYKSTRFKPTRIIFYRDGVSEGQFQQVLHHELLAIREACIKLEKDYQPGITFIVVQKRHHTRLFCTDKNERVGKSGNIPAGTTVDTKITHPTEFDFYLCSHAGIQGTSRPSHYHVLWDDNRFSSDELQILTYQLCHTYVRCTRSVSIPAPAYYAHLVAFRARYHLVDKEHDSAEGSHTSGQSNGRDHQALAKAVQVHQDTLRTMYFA

[5] = target: T1, HA-SND1, full-length human, wild type; experiment: as above
[6] = target: T2, endogenous human SND1 (human breast cancer cells, MDA-MB-231) (human, UniProt Q7KZF4 2-910); experiment: competition in endogenous co-IP from MDA-MB-231 lysate (endogenous MTDH, m58, is the competitor); peptide at 50 uM; the sheet prints IP: MTDH, the legend says anti-SND1 [27B]
T2 construct: Endogenous protein in cell lysate; also called endogenous SND1 protein
T2 sequence: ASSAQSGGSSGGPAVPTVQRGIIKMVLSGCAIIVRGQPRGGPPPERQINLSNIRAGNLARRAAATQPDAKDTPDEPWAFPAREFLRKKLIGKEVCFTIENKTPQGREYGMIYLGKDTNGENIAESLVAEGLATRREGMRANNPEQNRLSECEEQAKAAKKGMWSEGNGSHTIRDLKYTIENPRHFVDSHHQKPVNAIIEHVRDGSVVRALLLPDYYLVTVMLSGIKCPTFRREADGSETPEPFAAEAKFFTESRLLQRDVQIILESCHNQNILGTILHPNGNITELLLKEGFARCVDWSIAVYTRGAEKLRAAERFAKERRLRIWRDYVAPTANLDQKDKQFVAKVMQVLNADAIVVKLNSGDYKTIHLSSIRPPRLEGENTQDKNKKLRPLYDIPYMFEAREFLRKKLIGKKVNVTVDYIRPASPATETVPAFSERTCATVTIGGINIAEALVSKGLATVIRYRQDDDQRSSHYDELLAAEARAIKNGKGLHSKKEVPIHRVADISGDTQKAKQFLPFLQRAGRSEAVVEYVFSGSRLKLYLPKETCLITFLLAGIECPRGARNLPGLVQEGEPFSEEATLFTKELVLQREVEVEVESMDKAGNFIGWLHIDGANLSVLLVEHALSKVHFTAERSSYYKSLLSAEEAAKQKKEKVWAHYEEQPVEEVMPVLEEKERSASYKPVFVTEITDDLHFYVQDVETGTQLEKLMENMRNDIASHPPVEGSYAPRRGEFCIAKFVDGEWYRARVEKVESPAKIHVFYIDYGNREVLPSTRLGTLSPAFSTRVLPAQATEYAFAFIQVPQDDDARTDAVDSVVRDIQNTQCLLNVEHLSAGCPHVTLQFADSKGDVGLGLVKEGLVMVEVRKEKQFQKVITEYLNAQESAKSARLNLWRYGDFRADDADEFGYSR
Experimental: Breast cancer cells MDA-MB231 were collected and subjected to IP assay. (FIG. 27A) Cell lysate was incubated with anti-SND1 antibody or IgG overnight followed by 2 hr incubation with Protein A/G beads to pull down endogenous SND1 protein. The beads were washed with lysis buffer and split into 5 fractions. Each fraction was eluted with buffer or indicated peptides for 30 min. The elution fractions and beads were collected for WB. (FIG. 27B) Cell lyaste was split into 5 fractions, and incubated with anti-SND1 antibody plus either buffer or indicated peptides. After 24 hr, the lysate was incubated with Protein A/G beads then the beads were washed in wash buffer.
The interaction interruption effects was confirmed by endogenous immunoprecipitation (IP) of a breast cancer cell line. Briefly, cell lysates from the breast cancer cell line MDA-MB-231 were collected and subjected to IP assay. FIG. 27A—Cell lysate was incubated with anti-SND1 antibody or IgG overnight followed by 2 hr incubation with Protein A/G beads to pull down endogenous SND1 protein. The beads was washed with lysis buffer and split into 5 fractions. Each fraction was eluted with buffer or indicated peptides for 30 min. The elution fractions and beads were collected for WB. FIG. 27B—Cell lyaste was split into 5 fractions, and incubated with anti-SND1 antibody plus either buffer or indicated peptides. […]

[7] = target: T1, HA-SND1, full-length human, wild type; experiment: competition in co-IP from 293T cells with HA-SND1 and MYC-MTDH (m36 is the competitor); peptide at 50 uM; the sheet prints IP: MYC, the legend says anti-HA [26B, 26C, 26D]
Experimental: 293 T cells were co-transfected with HA-SND1 and MYC-MTDH. After 48 hours, the cells were collected and subject to immunoprecipitation assay. Cell lysate was incubated with anti-HA antibody or IgG overnight followed by a two hour incubation with Protein A/G beads to pull down HA-SND1 protein. The beads were washed with lysis buffer and split into five fractions.
The elution fractions and beads were collected for western blot. (FIGS. 26C and 26D) Cell lyaste was split into 6 fractions. One of the fractions was incubated with IgG and the rest were incubated with anti-HA antibody plus either buffer or indicated peptides. After 24 hours, the lysate was incubated with Protein A/G beads then the beads was washed followed by wash buffer. 50 uM of peptides was used in all the assays.

PAE (397-399)→SQ
Estimated Binding Affinity [1]: 0.8 µM

{CFP}-SSADPNSDWNAPAEEWGNWVDE (peptide, not shown: large carriers, also: fused to CFP, whose letters are not given here) [CFP-MTDH fusion protein]
Kd [2]: 900 nM

B1: Myc-MTDH E399R, full-length human (other)
chain: MAARSWQDELAQQAEEGSARLREMLSVGLGFLRTELGLDLGLEPKRYPGWVILVGTGALGLLLLFLLGYGWAAACAGSRKKRRSPPRKREEAAAVPAAAPDDLALLKNLRSEEQKKKNRKKLSEKPKPNGRTVEVAEGEAVRTPQSVTAKQPPEIDKKNEKSKKNKKKSKSDAKAVQNSSRHDGKEVDEGAWETKISHREKRQQRKRDKVLTDSGSLDSTIPGIENTITVTTEQLTTASFPVGSKKNKGDSHLNVQVSNFKSGKGDSTLQVSSGLNENLTVNGGGWNEKSVKLSSQISAGEEKWNSVSPASAGKRKAEPSAWSQDTGDANTNGKDWGRSWSDRSIFSGIGSTAEPVSQSTTSDYQWDVSRNQPYIDDEWSGLNGLSSADPNSDWNAPAREWGNWVDEERASLLKSQEPIPDDQKVSDDDKEKGEGALPTGKSKKKKKKKKKQGEDNSTAQDTEELEKEIREDLPVNTSKTRPKQEKAFSLKTISTSDPAEVLVKNSQPIKTLPPATSTEPSVILSKSDSDKSSSQVPPILQETDKSKSNTKQNSVPPSQTKSETSWESPKQIKKKKKARRET
notes: Full-length, Myc-tagged; also called SPM21
binding result [3]: binds

B2: Myc-MTDH TPM1 (D389R, D393R, W394D), full-length human (other)
chain: B1 chain with D389R, D393R, W394D, R399E
notes: Full-length, Myc-tagged; also called TPM1 MTDH
binding result [4]: binds | binding result [5]: no binding

B3: Myc-MTDH TPM2 (E399R, E400R, W401D), full-length human (other)
chain: B1 chain with E400R, W401D
notes: Full-length, Myc-tagged; also called TPM2 MTDH
binding result [4]: binds | binding result [5]: no binding

B4: Myc-MTDH E400R, full-length human (other)
chain: B1 chain with R399E, E400R
notes: Full-length, Myc-tagged; also called SPM22
binding result [3]: binds

PNSDWNAPAEEWGNW (also called wild type MTDH peptide) [Peptide-wt (PNSDWNAPAEEWGNW)]
binding result [6]: binds | binding result [7]: binds
